Test results as given in patent publication US20040197325A1 (PDL BIOPHARMA, published 2004).

Columns and labels:
[1] = biological target: T1, human GPR64-Fc fusion protein (human, UniProt Q8IZP9 38-591); assay: affinity screen of Example 4 (Biacore/FACS); form of the target not restated
T1 construct: Immunogen, and the analyte in the Biacore kinetics

[2] = biological target: T2, GPR64 protein (SEQ ID NO:2) (UniProt Q8IZP9 38-1017); assay: FACS
T2 chain: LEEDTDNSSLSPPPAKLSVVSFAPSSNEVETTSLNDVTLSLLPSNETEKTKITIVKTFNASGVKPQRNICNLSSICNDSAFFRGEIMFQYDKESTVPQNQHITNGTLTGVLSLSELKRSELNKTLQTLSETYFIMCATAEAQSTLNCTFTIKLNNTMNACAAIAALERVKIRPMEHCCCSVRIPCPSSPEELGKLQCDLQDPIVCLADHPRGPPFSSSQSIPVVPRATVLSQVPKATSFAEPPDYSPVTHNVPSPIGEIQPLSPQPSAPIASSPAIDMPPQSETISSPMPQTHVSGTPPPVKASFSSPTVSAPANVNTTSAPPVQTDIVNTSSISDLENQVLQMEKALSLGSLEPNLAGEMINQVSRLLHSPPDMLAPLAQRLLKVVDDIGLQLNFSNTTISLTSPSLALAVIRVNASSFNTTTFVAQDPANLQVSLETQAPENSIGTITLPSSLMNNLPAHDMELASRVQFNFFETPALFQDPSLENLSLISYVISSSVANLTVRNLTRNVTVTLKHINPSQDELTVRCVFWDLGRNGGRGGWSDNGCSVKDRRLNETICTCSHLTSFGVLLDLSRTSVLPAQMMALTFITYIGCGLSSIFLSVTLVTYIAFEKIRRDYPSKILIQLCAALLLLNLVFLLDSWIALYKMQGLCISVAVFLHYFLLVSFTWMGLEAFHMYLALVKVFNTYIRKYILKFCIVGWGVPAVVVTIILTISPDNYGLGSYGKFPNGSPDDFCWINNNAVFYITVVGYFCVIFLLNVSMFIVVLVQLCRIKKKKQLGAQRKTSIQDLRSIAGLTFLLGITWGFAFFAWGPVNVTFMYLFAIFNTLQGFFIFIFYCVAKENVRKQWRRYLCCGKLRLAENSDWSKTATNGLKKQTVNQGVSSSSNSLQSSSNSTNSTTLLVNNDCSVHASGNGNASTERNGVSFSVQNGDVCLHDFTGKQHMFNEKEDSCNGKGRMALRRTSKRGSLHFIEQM

[3] = biological target: T3, GPR64 protein (SEQ ID NO:2) (human, UniProt Q8IZP9 38-1017); assay: competitive FACS on H460 cells, confirmed by Biacore
T3 construct: Endogenous GPR64 on human tumor cells (NCI-H460) or in tissue sections; also called Ov1; HE6
Protocol: Epitope mapping was performed by competitive FACS assay. Briefly, H460 cells were incubated with 25 ug/ml unlabeled antibody for 1 hr on ice, at which time various amounts of FITC labeled antibody was added. After 30 additional minutes, cells were washed one time and fluorescence was measured by flow cytometry. All data was confirmed by Biacore.

B1: GPR64-18 (antibody, V domains shown)
VH: QVSLKESGPGILQPSQTLSLTCSFSGFSLSTSGMGVSWIRQPSGKGLEWLAHIYWDDDKRYNPSLKSRLTISKDTSSNLVFLKITSVDTADTATYYCARREVRRDYYAMDYWGQGTSVTVSS
VL: SIVMTQTPKFLLVSAGDRITIACRASQSVSNDVAWYQQKPGQSPKLLINYTSNRYTGVPDRFTGSGYGTDFTFTISTVQAEDLAVYFCQQAYSSPWTFGGGTKLEIK
notes: Mouse monoclonal antibody raised against GPR64-Fc; also called GPR64-18 antibody
binding result [1]: binds | EC50 [2]: ~4 nM | binding result [3]: binds
